Assay results from publication PMC2854372 (The Journal of Cell Biology, 2010).

Experiments:
[1] = target: T1, Bbp1-TAP (budding yeast, UniProt Q12365 1-385); test: pull-down
T1 sequence (looked up): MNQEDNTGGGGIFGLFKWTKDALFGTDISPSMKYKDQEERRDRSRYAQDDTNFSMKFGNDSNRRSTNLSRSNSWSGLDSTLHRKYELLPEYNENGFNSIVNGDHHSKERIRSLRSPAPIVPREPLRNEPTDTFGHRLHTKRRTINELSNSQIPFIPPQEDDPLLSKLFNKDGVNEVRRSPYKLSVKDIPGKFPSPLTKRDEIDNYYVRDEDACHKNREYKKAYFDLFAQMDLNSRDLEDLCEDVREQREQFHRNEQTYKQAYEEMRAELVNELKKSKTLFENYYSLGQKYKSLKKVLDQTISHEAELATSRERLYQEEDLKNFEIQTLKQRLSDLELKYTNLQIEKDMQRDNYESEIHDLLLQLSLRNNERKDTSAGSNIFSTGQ

[2] = target: T2, Kar1 peptide (budding yeast)
T2 peptide: KKRELIESKWHRLLFHDKK

B1: GST-Spc29 phosphorylated by 6His-Mps1 (natural protein, budding yeast, UniProt P33419 1-253, looked up)
chain: MDYSNFGNSASKKFQDDTLNRVRKEHEEALKKLREENFSSNTSELGNKKHYRAQERMSSPLHRLSPTGKSDDRKVKSPLDDKLRRQLREGNTRLPPPPFSSYGMPPTNRSNLDRIRRRTSSPVRTDKFASQNVIDDQRLEIKYLERIVYDQGTVIDNLTSRITRLESFILNSISDRGDKNFASLEHSRSFSGFPTNKTYGLQMGGLYENDMPYRRSSDNINKEGAREDRSSQIHIENESTEDILKILSSSFHN
modifications: phosphorylated in vitro by Mps1; sites identified by LC-MS/MS: T18, T159, S187 and T240
With B1 the “fold binding against GST-Spc29 treated with kinase-dead mps1KD” value [1] was 5 fold.

B2: GST-Spc29, nonphosphorylated (natural protein, budding yeast, UniProt P33419 1-253, looked up)
chain: MDYSNFGNSASKKFQDDTLNRVRKEHEEALKKLREENFSSNTSELGNKKHYRAQERMSSPLHRLSPTGKSDDRKVKSPLDDKLRRQLREGNTRLPPPPFSSYGMPPTNRSNLDRIRRRTSSPVRTDKFASQNVIDDQRLEIKYLERIVYDQGTVIDNLTSRITRLESFILNSISDRGDKNFASLEHSRSFSGFPTNKTYGLQMGGLYENDMPYRRSSDNINKEGAREDRSSQIHIENESTEDILKILSSSFHN
B2: binds [1].

B3: Cdc31-T110D (natural protein, budding yeast, UniProt P06704 1-161, looked up)
chain: MSKNRSSLQSGPLNSELLEEQKQEIYEAFSLFDMNNDGFLDYHELKVAMKALGFELPKREILDLIDEYDSEGRHLMKYDDFYIVMGEKILKRDPLDEIKRAFQLFDDDHDGKISIKNLRRVAKELGETLTDEELRAMIEEFDLDGDGEINENEFIAICTDS
For B3, the “fold lower ability to bind than wild-type Cdc31” value [2] was ~10 fold.
